Experimental data reported in PMC8648943.

Experiments:
[1] = target: Pf3 coat protein with single cysteine 47C, tethered by its C-terminal end to the AFM tip through a PEG27-linker (phage Pf3) (UniProt P03623); assay: FD-AFM-based single-molecule force spectroscopy; as a2, contact time 52 ms
[2] = target: Pf3 coat protein with single cysteine 47C, tethered by its C-terminal end to the AFM tip through a PEG27-linker (phage Pf3) (UniProt P03623); assay: dynamic single-molecule force spectroscopy (DFS) by AFM; Pf3 tethered through PEG27 to the AFM tip, YidC in supported POPE:POPG membranes; contact time 2 ms; pulling velocities 1–25 µm s^–1; Bell-Evans fit, k0 = zero-force transition rate of the bond; room temperature
[3] = target: Pf3 coat protein with single cysteine 47C, tethered by its C-terminal end to the AFM tip through a PEG27-linker (phage Pf3) (UniProt P03623); assay: FD-AFM-based single-molecule force spectroscopy; Pf3 tethered through PEG27 to the AFM tip, YidC in supported POPE:POPG membranes on mica; contact time ≈2 ms; pulling velocity 3–4.5 µm s^–1; room temperature; 150 mM KCl, 20 mM HEPES, pH 7.4
[4] = target: Pf3 coat protein with single cysteine 47C, tethered by its C-terminal end to the AFM tip through a PEG27-linker (phage Pf3) (UniProt P03623); assay: dynamic single-molecule force spectroscopy (DFS) by AFM; as a5, contact time 52 ms
[5] = target: Pf3 coat protein with single cysteine 47C, tethered by its C-terminal end to the AFM tip through a PEG27-linker (phage Pf3) (UniProt P03623); assay: FD-AFM-based single-molecule force spectroscopy; as a2, contact time 502 ms
[6] = target: Pf3 coat protein with single cysteine 47C, tethered by its C-terminal end to the AFM tip through a PEG27-linker (phage Pf3) (UniProt P03623); assay: AFM-based single-molecule force spectroscopy (height clamp mode); Pf3 tethered by its C-terminal end through a PEG27-linker to the AFM tip, held ≈5–10 nm above a supported POPE:POPG membrane with YidC for ≈1–2 s; force-time curves; lifetimes fitted with the Bell model; room temperature; 150 mM KCl, 20 mM HEPES, pH 7.4
[7] = target: Pf3-47C labelled with Atto520 (phage Pf3) (UniProt P03623); assay: FRET or BRET; single-molecule FRET on a confocal FCS setup; proteoliposomes with 1 nM YidC S405C-Atto647N (acceptor) mixed with 1 nM Atto520-labelled Pf3-47C (donor); 300 mM NaCl, 20 mM Tris-HCl, pH 7.5; recorded for 360 s

Q: With “R366E YidC mutant (from UniProt P25714 1-548) (enzyme)” as the molecule, how does the fraction of (un-)binding forces >50 pN [1] read?
A: 10.5%

Q: And the mean (un-)binding force [1]?
A: 31.5 pN

Q: What about the koff [2] of the same molecule?
A: 0.03 s⁻¹

Q: And the mean (un-)binding force [3]?
A: 29.1 pN

Q: With “wild-type (wt) YidC insertase from E. coli (from UniProt P25714 1-548)” as the molecule, how does the koff [4] read?
A: 2 s⁻¹

Q: What does the source list for “wild-type (wt) YidC insertase from E. coli (from UniProt P25714 1-548) (enzyme)”?
A: fraction of (un-)binding forces >50 pN [1]: 48.7%; mean (un-)binding force [1]: 47.6 pN; koff [2]: 0.03 s⁻¹; lifetime of the bond (reciprocal of k0) [2]: 33 s; mean (un-)binding force [5]: 50.8 pN; lifetime of the bond (reciprocal of k0) [4]: 0.5 s; bond lifetime at zero force (t0, Bell model) [6]: 0.32 s; fraction of force-time curves with interaction events [6]: 2 to 4%; koff [6]: 3.1 s⁻¹; mean (un-)binding force [3]: 29.5 pN

Q: With “ΔCH2 YidC mutant (residues 399–415 deleted) (from UniProt P25714 1-548)” as the molecule, how does the koff [2] read?
A: 0.07 s⁻¹

Q: How did the fraction of (un-)binding forces >50 pN [1] turn out when “ΔCH2 YidC mutant (residues 399–415 deleted) (from UniProt P25714 1-548) (enzyme)” was run?
A: 22.2%

Q: What about the mean (un-)binding force [1] of the same molecule?
A: 41 pN

Q: And the mean (un-)binding force [3]?
A: 35.4 pN

B1: R366E YidC S405C labelled with Atto647N (enzyme)
chain: MDSQRNLLVIALLFVSFMIWQAWEQDKNPQPQAQQTTQTTTTAAGSAADQGVPASGQGKLISVKTDVLDLTINTRGGDVEQALLPAYPKELNSTQPFQLLETSPQFIYQAQSGLTGRDGPDNPANGPRPLYNVEKDAYVLAEGQNELQVPMTYTDAAGNTFTKTFVLKRGDYAVNVNYNVQNAGEKPLEISSFGQLKQSITLPPHLDTGSSNFALHTFRGAAYSTPDEKYEKYKFDTIADNENLNISSKGGWVAMLQQYFATAWIPHNDGTNNFYTANLGNGIAAIGYKSQPVLVQPGQTGAMNSTLWVGPEIQDKMAAVAPHLDLTVDYGWLWFISQPLFKLLKWIHSFVGNWGFSIIIITFIVEGIMYPLTKAQYTSMAKMRMLQPKIQAMRERLGDDKQRICQEMMALYKAEKVNPLGGSFPLLIQMPIFLALYYMLMGSVELRQAPFALWIHDLSAQDPYYILPILMGVTMFFIQKMSPTTVTDPMQQKIMTFMPVIFTVFFLWFPSGLVLYYIVSNLVTIIQQQLIYRGLEKRGLHSREKKKS
modifications: Atto647N (acceptor) on cysteine S405C in the cytoplasmic α-helical hairpin
Q: With B1 as the molecule, how does the FRET events relative to wt YidC within 360 s [7] read?
A: 25%
